In patent US7910549:

Target: complete MN/CA IX protein (MN/CA IX+), from Vero cells infected with vaccinia virus carrying the complete coding region of MN/CA IX (human) (UniProt Q16790)
Assay: cell-based or functional assay

monoclonal antibody M75 (MAb M75), secreted by hybridoma VU-M75, ATCC HB 11128
cell attachment to purified MN/CA IX+ (fold dilution of ascites fluid): 1000
